Measured values published in the Human Domainome abundance scans (Beltran et al. 2025).

B1: Ubiquitin-protein ligase residues 30 to 86; numbered along this chain, Q05086 (parent)
chain: KHLIERYYHQLTEGCGNEACTNEFCASCPTFLRMDNNAAAIKALELYKINAKLCDPH

Variants of: B1
Assay: abundance fitness (aPCA) (normalised: wild type 0, dead -1); higher = more abundant; growth selection in yeast, the domain comes from the species named
Conditions: Homo sapiens

Abundance fitness: each site, then its substitutions
D35: N -0.094 | T -0.112 | Q -0.084 | I -0.177 | L -0.091 | G -0.039 | F -0.265 | H -0.213 | R -0.095 | K -0.199 | Y -0.333 | C -0.133 | S -0.022 | A -0.067 | M -0.058 | W -0.308 | P -0.135 | E -0.026 | V -0.187
N50: H -0.05 | S 0.023 | K -0.095 | G -0.019 | P -0.041 | V -0.158 | Q -0.11 | T -0.006 | L -0.143 | E -0.041 | D 0.034 | C -0.057 | I -0.356 | A 0.004 | R -0.033 | Y -0.018 | W -0.31
K52: W -0.437 | R -0.052 | S -0.31
N37: S -0.072 | F -0.542 | D 0.044 | M -0.186 | T -0.015 | Q -0.016 | K -0.107 | A 0.018 | R -0.086 | P -0.107 | C -0.17 | H -0.075 | W -0.454
I49: T 0.003 | L -0.043
M34: N -0.279 | I 0.054 | Q -0.074 | F -0.061 | K -0.23 | P -0.042 | T -0.129 | E -0.053 | L -0.002 | G -0.117 | W -0.183 | A -0.029 | Y -0.035 | V -0.023 | H -0.095 | S -0.042 | R -0.102
C54: Y -0.94 | S -0.076 | F -0.448
R33: T -0.025 | Y -0.19 | W -0.294 | V -0.013
P56: A -0.035
E45: W -0.372 | R -0.064 | F -0.221 | Q -0.129 | H -0.184 | Y -0.217 | D -0.199 | S -0.067 | M -0.181 | G -0.069 | C -0.276 | A -0.087 | K -0.129 | P -0.873 | N 0.11 | T -0.288
L44: T 0.118 | W -0.16 | N 0.013 | S 0.051 | C -0.032 | G 0.057 | R 0.074 | H -0.096 | V 0.017 | K 0.108 | A 0.057 | F -0.122 | Y 0.131 | D 0.042 | P 0.059 | I 0.173
Y47: P -0.05 | F 0.108 | T 0.073 | K 0.031 | R 0.05 | L 0.027 | I -0.094 | Q -0.03 | N 0.012 | S 0.084 | C 0.031 | W -0.085 | A 0.088 | V 0.06 | H 0.088 | G 0.008
K42: N -0.198 | Q -0.085 | M -0.269 | S -0.178 | F -0.408 | G -0.343 | P -0.735 | R -0.023 | W -0.293 | V -0.392 | E -0.109 | L -0.211 | A -0.184 | C -0.282 | H -0.109 | I -0.498 | T -0.157
I41: T -0.013 | L -0.072 | Y -0.123 | P -0.069 | W -0.239 | Q 0.075 | H 0.064 | R 0 | C -0.028 | D 0.024 | S 0.035 | E 0.029 | V 0.01 | G 0.001 | M -0.053 | A 0.012 | K 0.08
A51: C -0.151 | P -0.35 | M -0.189 | Q -0.289 | W -0.029 | F -0.053 | L -0.463 | E -0.102 | T -0.02 | Y -0.195 | S -0.012 | V -0.082 | K -0.093 | N -0.152 | I -0.45 | G -0.075 | H -0.147 | D -0.052
D55: N 0.017 | M 0.006 | H -0.227 | S -0.059 | T -0.087 | F -0.06 | E -0.017 | Y -0.159 | C -0.099 | G -0.018 | R -0.118 | P -0.027 | W -0.106 | L -0.027 | I -0.149 | K 0.056 | V -0.012 | A -0.043 | Q 0.011
A40: I -0.242 | K -0.023 | G 0.046 | L -0.083 | Y -0.192 | P -0.171 | F -0.194 | Q -0.015 | C 0.067 | N 0.041 | D 0.025 | S 0.037 | T 0.08 | E 0.159 | W -0.04
L46: G -0.178 | Y -0.312 | V -0.06 | A -0.107 | C -0.029 | E -0.514 | M -0.13 | K -0.754 | F -0.063 | P -0.528 | N -0.341 | T -0.278 | I -0.056 | S -0.095 | D -0.389 | H 0.035 | Q -0.17 | W -0.401
K48: Q -0.109 | R -0.072 | F -0.682 | P -0.222 | D 0.009 | A -0.17 | W -0.357 | L -0.388 | Y -0.438 | T -0.122 | I -0.607 | C -0.427 | E -0.058 | S -0.161 | H -0.111 | M -0.424 | V -0.455 | G -0.188 | N 0.012
L53: Q 0.04 | N -0.433 | A -0.098 | C -0.14 | E -0.068 | H -0.191 | G -0.199 | T -0.109 | S -0.097 | I -0.032 | P -0.23 | K -0.071 | M -0.073 | Y -0.062 | V -0.056 | F -0.048 | W -0.164 | D -0.353
A39: I -0.085 | H -0.228 | D -0.605 | W -0.375 | L -0.096 | M -0.065 | N -0.242 | R -0.053 | V -0.084 | Q -0.317 | Y -0.239 | K -0.175 | E -0.393 | T -0.065 | F -0.249 | G -0.084
A38: P -0.006 | G -0.191 | L 0.025 | M -0.164 | I -0.166 | Q -0.106 | K -0.044 | R 0.005 | C -0.083 | W -0.142 | N -0.213 | H -0.19 | Y 0.08 | T -0.07 | E -0.108 | V 0.029 | D -0.295
N36: C -0.019 | A -0.042 | L -0.005 | S 0.044 | K 0.013 | M -0.181 | Q -0.005 | E 0.007 | V -0.03 | H -0.152 | I -0.11 | Y -0.308 | F -0.046 | W -0.239 | R 0.055 | T -0.027 | G -0.036
A43: H -0.987 | S 0.027 | F -1.06 | P -0.467 | E -0.894 | G -0.156 | K -0.242 | W -0.989 | M -0.321 | R -0.717 | V -0.221 | C -0.098 | N -0.768 | I -0.92 | D -0.856 | L -0.826
